# Measurements published in patent US20250367269A1, “KYNURENINE AMINOTRANSFERASE AND PRODUCTS THEREOF FOR THE TREATMENT OF ARTHRITIC DISEASES” (Institut National de Recherche Pour L'Agriculture, …, priority 2022, published 2025).
# B1: AADAT: Recombinant murine alpha-aminoadipate aminotransferase (SEQ ID NO:13) produced in E. coli and purified by affinity chromatography (protein, listed as Mus musculus)
# chain: MNYSRFLTATSLARKPSPIRTTADILSKAPKTLISLAPGSPNPSMFPFKSAAFTVENGSTIRFEDDLIKRALQYSPSYGIPELLSWLKQFQVKLHNPPTVNYPPNQGQMDLCITSGCQDGLCKAFEMLINPGDTILVNEPLFPGTLYAMKPLGCNIINVPSDEHGIIPEGLKKILSQWKPEDSKDPTKKTPKFLYTVPNGNNPTGNSLTGDRKKEIYELARKYDFLIIEDDPYYFLQFSKPWEPTFLSMDVDGRVIRADTFSKTVSSGLRVGFMTGPKTLIQNIVLHTQVSSVHACTLSQLMILQLLHQWGEEGFLAHIDRTIDFYKNQRDSILAAADKWLRGLAEWHVPKAGMFLWIKVKGISDTKQLIEEKAIEREVLLVPGNGFFIDGSAPTSFFRASFSLATPAQMDTAFQRLAQLIKESL
# Tests used:
# [1] = AADAT activity test (transformation of KYNU into KYNA and XANA); type: biochemical; settings: 15 min in the presence of KYNU (1000 μM), FIG. 3F
# Experimental: The activity test is based on the disappearance of kynurenine and 3-hydroxykynurenin which are substrates of AADAT. A reaction mixture (50 μL final volume) containing 10 mM L-kynurenine or 3-hydroxykynurenin, 2 mM α-oxoglutarate, 40 μM PLP (pyridoxal 5′-phosphate) and 0 or 1 μL of the purified protein sample prepared in buffer 100 mM potassium phosphate (pH 7.4). Then, the mixture was incubated at 37° C. for 15 min, and the reaction was stopped by the addition of an equal volume of 30% acetic acid. The supernatant of the reaction mixture, obtained by centrifugation at 3000 g for 10 min at 4° C., was mixed equally with Ehrlich's solution and incubated 15 min at room temperature to have a colorimetric reaction. In parallel, a standard range of kynurenine or 3-hydroxykynurenin from 0 μM to 1000 μM was made under the same conditions. The amount of kynurenine or 3-hydroxykynurenin present in the sample was measured with a spectrophotometer at an OD of 492 nm and calculated using the standard range (FIG. 3E). A verification of the production of KYNA and XANA in vitro via the action of our enzyme during 15 min in the presence of KYNU (1000 μM) was carried out (FIG. 3F).
# [2] = tested on: collagen-antibody induced arthritis; assay: collagen-antibody induced arthritis model; type: in vivo, C57BL6J male mice
# Experimental: C57BL6J male mice were injected intraperitoneally with a cocktail of arthritogenic anti-type II collagen (2 mg/mouse) at day 0. At day 3, mice received an injection of lipopolysaccharide from bacterial cells walls of E. coli 055: B5. The severity of arthritis was evaluated every other day on each paw with a score from 0 to 4, for a maximal score of 16 by animal (0=normal joint, 1=moderate redness and slight swelling or swelling of one or two digits, 2=moderate redness and moderate paw swelling or swelling more than three digits, 3=redness and swelling from tarsal joints to metatarsal joints, 4=severe redness and severe swelling of the entire paw). Hindpaw swelling was measured at the same time by plethysmography. Paw volume determined prior to disease induction was used as the baseline. The development of arthritis was analyzed by histological assessment. Hindpaws were dissected then fixed in 4% formalin (Labonord). Hindpaws were further decalcified in 10% EDTA for 1 month and embedded in paraffin blocks. Five μm-thick tissue sections were cut and two stainings were performed, hematoxylin, eosin and toluidine blue. Histological examination was carried out blindly by three independent observers. Synovium from ankle joint was graded on a scale of 0 to 3 (with 0=normal and 3=major changes) for synovial hyperplasia (width of lining layer) and tissue cell infiltration. […]
molecule,measurement,setting,value
B1,transformation of KYNU into KYNA and XANA in vitro,[1],dose effect can be observed
same,arthritis severity,"[2]; daily i.p. recombinant AADAT ~50 μg/d vs vehicle, confirmed by oedema swelling measure and histology (FIG. 4)",drastically reduced
same,maximal clinical score mean,"[2]; score 0 to 4 per paw, maximal 16 by animal, daily i.p. recombinant AADAT ~50 μg/d, 2 experiments, 8 mice per group, vehicle 6.9",2.6
